Molecular target: T1, TIM-3 (分析物, SPR analyte)
T1 construct: also called TIM-3抗原; 分析物(TIM-3)
Assay: SPR (Biacore T200), 25°C; antibody captured by anti-human IgG Fc on a CM5 chip, TIM-3 as analyte at 0-100 nM, 1:1 binding model

T1 sequence (Q8TDQ0 22-202): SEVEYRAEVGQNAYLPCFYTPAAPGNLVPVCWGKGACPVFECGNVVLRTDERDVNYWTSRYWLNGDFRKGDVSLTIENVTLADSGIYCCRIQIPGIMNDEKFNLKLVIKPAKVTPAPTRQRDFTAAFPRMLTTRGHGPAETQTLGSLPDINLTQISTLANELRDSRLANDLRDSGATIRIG

B1: 抗TIM-3抗体 (anti-TIM-3 monoclonal antibody of the invention) (antibody, V domains shown)
VH: QVQLQESGPGLVKPGETLSLTCAVSGGSFSRGGYYWNWIRQPPGKGLEWIGYIYYSGSTNYNPSLKSRVTISLDTSKNQFSLKLSSVTAEDTAVYYCARDHYTSSYNYDYWGQGTLVTVSS
VL: EIVLTQSPATLSLSPGERATLSCRASESVQSYIAWYQQKPGQAPRLLIYNASQRSTGIPARFSGSGSGTDFTLTISSLEPEDFAVYYCQQRFSWPPTFGQGTKLEIK
notes: The variable regions were cloned into the ZY-CDMO vector and expressed in CHO cells; The antibody was purified on Protein A, captured by an anti-human IgG Fc antibody and detected with goat anti-human-HRP, so it carries a human IgG Fc; It came from a phage antibody library; also called 抗TIM-3单克隆抗体; 本发明抗TIM-3抗体
  Kd: 6.41 nM

— patent CN110407938A (BEIJING JOINN BIOTECHNOLOGY CO LTD, dated 2019)
